Reference: patent US20140065154A1, “TLR3 BINDING AGENTS” (INNATE PHARMA, priority 2011, published 2014)
Where two headings read alike, the source gives them in different places. One block for each molecule: values may come before it.

Legend:
[1] = test system: COPD mouse model; test: In vivo efficacy model of COPD (Elastin and LPS); design: species or system mice; conditions: drug combination study
Description: Three groups of 10 male mice were treated as follows: • 1 group of 10 mice with a vehicle. • 1 group of 10 mice with the anti-mouse TLR328G7 antibody administration (i.p., 500 μg/per mouse) on days 0, 3, 7, 10, 14, 17, 21 and 24. • 1 group of 10 mice with the positive control roflumilast (approved as […]; antagonist of PDE-4) (oral, 15 mg/kg, five times per week). All mice were treated at days 0, 7, 14 and 21 with Elastin and LPS (i.n.), to induce COPD. At day 28 mice were sacrificed for analysis. The cellular infiltrates into airways was measured by analysis of bronchoalveolar lavage (BAL) fluid by differential cell count on day 28. The oxygenation of venous blood was measured by gasometry on day 28. The level inflammatory mediators in BALF, through the analysis for protein levels of TNF-alpha, IL-6, IL-17A and IP-10 was performed by multiplex assay. […] Statistical analysis was performed on all data utilizing a Student's t test: '*' p<0.05; '**' p<0.005; '***'p<0.0005. […] All mice were treated with Elastin and LPS (i.n.), to induce COPD and sacrified as in study A. The cellular infiltrates into airways was measured by analysis of bronchoalveolar lavage (BAL) fluid by differential cell count as in Study A.

[2] = cited from earlier work
[3] = target: T1, TLR3 (Homo sapiens, UniProt O15455); test: 293T-TLR3-ISRE luciferase reporter gene assay; format: cell-based; design: host or cells: 293T (ATCC #CRL-1573), stably carrying pISRE-luc; conditions: dsRNA TLR3 agonist
Text: A reporter gene assay using as promoter ISRE (IFN-stimulated response element) and as reporter gene and protein luciferase was set up. A 293T cell line (ATCC, #CRL-1573) was stably transfected with pISRE-luc plasmid (#219089—Stratagene), further selected by cloning as inducing optimal response to IFN-alpha stimulation and referred to as control 293T-ISRE. This cell line was further stably transfected with pUNO-humanTLR3 plasmid (#puno-htlr3—InVivogen) or pUNO-mouseTLR3 plasmid (#puno-mtlr3—InVivogen) and referred to as 293T-TLR3-ISRE and 293T-mTLR3-ISRE respectively. On day 0, cells are seeded at 4×10^5 cells/mL in complete culture medium in 96-well culture plate (100 μl/well). Cells are first incubated at 37° C. for 20 hours, then 50 μL of medium are discarded and cells are activated with 100 μL/well final of increasing amounts of polyAU together with various concentrations of anti-TLR3 antibodies. Cells incubated with fresh medium will be used as background luciferase activity. Cells are incubated at 37° C. for 6 hours. 100 μL of freshly thawed Steady Glo (Promega) are added to each well, plates were incubated 10 min at RT in the dark and the light emitted in each well is quantified as Count Per Second (CPS) on a gamma-counter (TopCount) apparatus.
Antibodies were tested for inhibition of TLR3 signaling in a luciferase based reporter gene activity (293T-TLR3-ISRE). […] Briefly, dsRNA TLR3 agonists were used to induce TLR3 signaling in the reporter assay in the presence of anti-TLR3 antibodies, and TLR3 signaling was assessed.
In a further set of experiments, 293-huTLR3 cells were incubated with different concentrations of the anti-TLR3 mAbs for 1 to 2 hours (see FIG. 1A; mAb concentration is represented in axis in μg/ml on a logarithmic scale) followed by the addition to the medium of the TLR3 agonist polyAU at a concentration of 300 μg/ml. Luciferase expression was measured after 6 h. […]
Similarly the kinetics of inhibition of the antibodies was evaluated in 293T-TLR3 luciferase assay. […] Luciferase expression was measured at 6 h post poly(A:U) addition. […]

[4] = target: T1, TLR3; test: SPR competition assay with polyAU in acidic buffer; format: binding; design: purchased R&D Systems; conditions: pH 5.6
Description: (a) General Biacore T100 methods. SPR measurements were performed on a Biacore T100 apparatus (Biacore GE Healthcare) at 25° C. In all Biacore experiments HBS-EP+ buffer (Biacore GE Healthcare) or 10 mM sodium acetate pH 5.6, 150 mM NaCl, 0.05% P20 served as running buffer and sensorgrams were analyzed with Biaevaluation 4.1 and Biacore T100 Evaluation software. Recombinant human and mouse TLR3 were purchased from R&D Systems. (b) Protein immobilization. Recombinant TLR3 protein was immobilized covalently to carboxyl groups in the dextran layer of a Biacore Series 5 Sensor Chip CM5 (chip). The chip surface was activated with EDC/NHS (0.2M N-ethyl-N′-(3-dimethylaminopropyl) carbodiimidehydrochloride, 0.05M N-hydroxysuccinimide (Biacore GE Healthcare)). […] Deactivation of the remaining activated groups was performed using 100 mM ethanolamine pH 8 (Biacore GE Healthcare). (c) Antibody binding analysis was run using HBS-EP+ (neutral pH). Antibodies at a concentration of 10 μg/ml were injected for 2 min at a constant flow rate of 10 μl/min over the immobilized proteins and allowed to dissociate for 3 min before regeneration by a ten second injection of 10 mM NaOH, 500 mM NaCl regeneration buffer. Blank correction was performed on line by co-injecting the soluble antibodies onto the reference dextran flow cell. (d) Competition assay in acidic buffer (pH 5.6). Flow rate was set to 10 μl/min, the first antibody at a concentration of 50 μg/ml (or polyAU at 100 μg/ml) was injected for 2 min, 3 times successively in order to saturate the rhTLR3 surface. The second antibody (or polyAU at 100 μg/ml when the polyAU was added after first antibody) was then injected for 2 min also at 50 μg/ml and allowed to dissociate for 3 min before regeneration by a 15 second injection of 10 mM NaOH, 500 mM NaCl regeneration buffer. Blank correction was also performed on line and the curve using the saturating antibody (or neucleic acid) followed by an injection of buffer subtracted to remove the signal due to the dissociation of the first complex. The resulting signal was compared to that obtained by the injection of the second antibody directly onto the rhTLR3 surface.
Competition assays were conducted according to the methods described for SPR, item d) at pH 5.6.
Buffer (followed by polyAU) is represented in the lower line, while 31C3 followed by polyAU is in the upper line.

[5] = target: T2, recombinant human TLR3 extracellular domain (R&D Systems) (human, UniProt O15455 27-711); test: SPR (Biacore T100), rhTLR3 immobilised on CM5 chip, bivalent affinity, pH 5.6
T2 construct: also called rhTLR3; human rec TLR3; not shown: His tag (R&D #1487-TR)

[6] = target: T3, wild type human TLR3 expressed in 293T cells (human, UniProt O15455 24-904); test: cell-based or functional assay
[7] = target: T3, wild type human TLR3 expressed in 293T …; test: cell-based or functional assay; remark: listed apart in the source
[8] = target: T2, recombinant human TLR3 extracellular …; test: SPR (Biacore T100), rhTLR3 immobilised on CM5 chip, bivalent affinity, pH 7.2

Molecule: O=C(Nc1c(Cl)cncc1Cl)c1ccc(OC(F)F)c(OCC2CC2)c1 [Roflumilast, roflumilast]
BAL macrophages and lymphocytes [1]: decreases in macrophages | BAL neutrophil infiltration [1]: decreased infiltration of neutrophils into the airways

Molecule: Adalimumab
half-life ([2]; after a standard 40 mg dose): approximately 2 weeks | half-life (range) ([2]; after a standard 40 mg dose): 240 to 480 h

Molecule: Etanercept
half-life ([2]; after a 25 mg dose): 70 h

B1: 23C8: anti-human TLR3 monoclonal antibody, IgG1; VH SEQ ID NO: 26, VL SEQ ID NO: 27 (antibody, listed as Mus musculus, V domains shown)
VH: MGWSWIFLFLLSGTAGVLSEVQLQQSGPELVKPGASVKISCKASGYSFTGYFMHWVKQSHVKSLEWIGRINPYNGATSYNQNFKDKASLTVDKSSSTSYMELHSLTSEDSAVYYCVRDDGGNYPFDYWGQGTTLTVS
VL: MSVPTQVLGLLLLWLTGARCDIQMTQSPASLSASVGETVTITCRASENIYSYLAWYQQKQGKSPQLLVYYAKTLAEGVPSRFSGSGTGTQFSLKINSLQPEDFGSYYCQHHYGTPYTFGGGTKLEIK
modifications: SIGNAL (1)..(19); SIGNAL (1)..(20)
inhibition of TLR3 signaling [3]: strongly inhibited TLR3 signaling in a dose dependent fashion | antibody binding to TLR3 chip previously incubated with polyAU [4]: able to bind TLR3 even in the presence of polyAU

B2: 28F11: anti-human TLR3 monoclonal antibody, IgG1; VH SEQ ID NO: 18, VL SEQ ID NO: 19 (antibody, listed as Mus musculus, V domains shown)
VH: MGWSWIFLFLLSGTAGVLSEVQLQQSGPELVKPGASVKISCKASGYSFTGYYIHWVKQSHVKSLEWIGRINPYYGATSYNQNFKDKANLTVDKSSSTAYMELHSLTSDDSAVYYCARSTKLGYLDYWGQGTTLTVS
VL: MSVPTQVLGLLLLWLTGARCDIQMTQSPASLSASVGETVTITCRASENIYSNLAWYQQKQGKSPQLLIYNAKTLAEGVPSRFSGSGSGTQYFLKINSLQPEDFGSYYCQHHYGTPFTFGGGTKLEIK
modifications: SIGNAL (1)..(19); SIGNAL (1)..(20)
inhibition of TLR3 signaling [3]: strongly inhibited TLR3 signaling in a dose dependent fashion | antibody binding to TLR3 chip previously incubated with polyAU [4]: able to bind TLR3 even in the presence of polyAU

Kd [5]: 0.0103 nM | IC50, luciferase reporter inhibition test with 100 µg/ml of polyAU [6]: < 5 µg/mL | IC50 (µg/ml), inhibition of polyAU (300 µg/ml)-induced luciferase expression in 293-huTLR3 ISRE reporter cells [7]: 1.83 µg/mL | Kd [8]: 0.138 nM
B3: antibody 23C8 (antibody, V domains shown)
VH: EVQLQQSGPELVKPGASVKISCKASGYSFTGYFMHWVKQSHVKSLEWIGRINPYNGATSYNQNFKDKASLTVDKSSSTSYMELHSLTSEDSAVYYCVRDDGGNYPFDYWGQGTTLTVS
VL: DIQMTQSPASLSASVGETVTITCRASENIYSYLAWYQQKQGKSPQLLVYYAKTLAEGVPSRFSGSGTGTQFSLKINSLQPEDFGSYYCQHHYGTPYTFGGGTKLEIK
notes: also called 23C8.4

Kd [5]: 0.335 nM | IC50 (µg/ml), inhibition of polyAU (300 µg/ml)-induced luciferase expression in 293-huTLR3 ISRE reporter cells [7]: 5.56 µg/mL | Kd [8]: 0.65 nM
B4: antibody 28F11 (antibody, V domains shown)
VH: EVQLQQSGPELVKPGASVKISCKASGYSFTGYYIHWVKQSHVKSLEWIGRINPYYGATSYNQNFKDKANLTVDKSSSTAYMELHSLTSDDSAVYYCARSTKLGYLDYWGQGTTLTVS
VL: DIQMTQSPASLSASVGETVTITCRASENIYSNLAWYQQKQGKSPQLLIYNAKTLAEGVPSRFSGSGSGTQYFLKINSLQPEDFGSYYCQHHYGTPFTFGGGTKLEIK

Kd [5]: 0.0517 nM | IC50, luciferase reporter inhibition test with 100 µg/ml of polyAU [6]: < 5 µg/mL | Kd [8]: 0.00301 nM
B5: antibody 34A3 (antibody, V domains shown)
VH: EIQLQQSGPELVKPGASVKVSCKASGYVFTTYSIYWVKQSHGKSLEWIGYIDPYNGDTSYNQKFKGKATLTVDKSSSTAYMHLNSLTSEDSTVYYCAREGNYYGYFDYWGQGTTLTVS
VL: QIVLTQSPALMSASPGEKVTMTCSASSSVSYMFWYQQKPRSSPKPWIYLTSNLASGVPARFSGSGSGTSYSLTISSMEAEDAATYYCQQWTGNPPTFGGGTKLEIK
notes: Mouse hybridoma antibody (Balb/c, immunization series #2); also called 34A3.5; printed 34A4, 32A4 and 34A2 in some places
